# Substitutions are numbered along the chain they refer to. Names may count otherwise.
# T1: human FcγRIIa(H) (human, UniProt P12318 36-217)
# T1 construct: also called FcgRIIaH; FcγRIIa type H
# T1 sequence: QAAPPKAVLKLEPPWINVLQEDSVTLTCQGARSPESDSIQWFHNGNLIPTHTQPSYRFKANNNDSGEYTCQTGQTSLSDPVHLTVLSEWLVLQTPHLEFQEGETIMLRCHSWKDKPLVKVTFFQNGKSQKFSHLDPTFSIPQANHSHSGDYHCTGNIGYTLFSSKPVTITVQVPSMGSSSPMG
# T2: human FcγRIIb (human, UniProt P31994 43-217, limits assumed)
# T2 construct: also called FcgRIIb
# T2 sequence: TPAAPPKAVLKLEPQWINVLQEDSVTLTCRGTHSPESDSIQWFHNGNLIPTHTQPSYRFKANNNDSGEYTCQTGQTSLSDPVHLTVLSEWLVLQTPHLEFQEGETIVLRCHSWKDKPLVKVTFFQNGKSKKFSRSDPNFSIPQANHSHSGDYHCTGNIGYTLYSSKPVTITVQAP
# T3: human FcγRIIa(R) (human, UniProt P12318 36-217)
# T3 construct: also called FcgRIIaR; FcγRIIa type R
# T3 chain: T1 sequence with H133R
# B1: GpH7-B3 variant G236Q/GpL16-k0 (antibody, human IgG1)
# heavy: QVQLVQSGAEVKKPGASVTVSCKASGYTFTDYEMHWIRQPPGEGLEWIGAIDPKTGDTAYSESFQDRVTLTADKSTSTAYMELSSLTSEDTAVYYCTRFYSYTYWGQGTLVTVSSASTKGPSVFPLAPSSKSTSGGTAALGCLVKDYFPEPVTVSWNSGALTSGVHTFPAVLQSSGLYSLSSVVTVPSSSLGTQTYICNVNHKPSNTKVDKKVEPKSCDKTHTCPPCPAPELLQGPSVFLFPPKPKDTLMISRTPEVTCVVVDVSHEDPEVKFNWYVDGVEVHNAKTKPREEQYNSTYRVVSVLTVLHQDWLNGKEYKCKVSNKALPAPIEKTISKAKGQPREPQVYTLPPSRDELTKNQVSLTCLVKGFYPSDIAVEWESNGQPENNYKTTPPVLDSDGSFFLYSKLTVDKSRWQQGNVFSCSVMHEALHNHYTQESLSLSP
# light: DIVMTQSPLSLPVTPGEPASISCQASESLVHSNRNTYLHWYLQKPGQSPQLLIYKVSNRFSGVPDRFSGSGSGTDFTLKISRVEAEDVGVYYCSQNTHVPPTFGQGTKVEIE
# notes: copies: 2 + 2
# B2: GpH7-B3 variant E269Y/GpL16-k0 (antibody, human IgG1)
# heavy: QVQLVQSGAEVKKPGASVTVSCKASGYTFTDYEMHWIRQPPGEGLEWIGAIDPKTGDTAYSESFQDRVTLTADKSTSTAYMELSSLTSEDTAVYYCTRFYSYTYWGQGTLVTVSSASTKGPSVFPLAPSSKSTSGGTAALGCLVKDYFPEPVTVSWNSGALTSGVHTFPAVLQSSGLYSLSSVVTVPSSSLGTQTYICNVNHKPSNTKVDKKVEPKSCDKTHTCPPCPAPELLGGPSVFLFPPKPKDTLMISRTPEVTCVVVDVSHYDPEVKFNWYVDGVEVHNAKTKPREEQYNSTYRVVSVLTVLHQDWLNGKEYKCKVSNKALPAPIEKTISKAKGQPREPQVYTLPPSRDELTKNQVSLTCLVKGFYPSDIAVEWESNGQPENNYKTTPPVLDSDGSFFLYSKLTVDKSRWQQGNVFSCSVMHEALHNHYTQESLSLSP
# light: B1 light
# notes: copies: 2 + 2
# B3: GpH7-B3 variant G237L/GpL16-k0 (antibody, human IgG1)
# heavy: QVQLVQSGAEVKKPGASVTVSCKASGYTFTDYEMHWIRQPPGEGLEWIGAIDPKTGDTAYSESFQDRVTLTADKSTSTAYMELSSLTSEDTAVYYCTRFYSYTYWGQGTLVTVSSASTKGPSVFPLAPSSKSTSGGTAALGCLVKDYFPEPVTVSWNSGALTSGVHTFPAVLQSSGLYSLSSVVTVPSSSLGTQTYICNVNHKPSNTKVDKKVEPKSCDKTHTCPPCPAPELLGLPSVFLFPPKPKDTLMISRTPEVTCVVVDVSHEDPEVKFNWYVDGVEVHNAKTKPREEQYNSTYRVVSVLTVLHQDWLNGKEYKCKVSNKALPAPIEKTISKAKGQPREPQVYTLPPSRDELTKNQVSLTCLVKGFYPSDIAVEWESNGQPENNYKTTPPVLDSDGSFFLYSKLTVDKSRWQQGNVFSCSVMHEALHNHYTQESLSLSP
# light: B1 light
# notes: copies: 2 + 2
# B4: GpH7-B3 variant E269T/GpL16-k0 (antibody, human IgG1)
# heavy: not shown
# light: B1 light
# notes: copies: 2 + 2
# B5: GpH7-B3 variant G236N/GpL16-k0 (antibody, human IgG1)
# heavy: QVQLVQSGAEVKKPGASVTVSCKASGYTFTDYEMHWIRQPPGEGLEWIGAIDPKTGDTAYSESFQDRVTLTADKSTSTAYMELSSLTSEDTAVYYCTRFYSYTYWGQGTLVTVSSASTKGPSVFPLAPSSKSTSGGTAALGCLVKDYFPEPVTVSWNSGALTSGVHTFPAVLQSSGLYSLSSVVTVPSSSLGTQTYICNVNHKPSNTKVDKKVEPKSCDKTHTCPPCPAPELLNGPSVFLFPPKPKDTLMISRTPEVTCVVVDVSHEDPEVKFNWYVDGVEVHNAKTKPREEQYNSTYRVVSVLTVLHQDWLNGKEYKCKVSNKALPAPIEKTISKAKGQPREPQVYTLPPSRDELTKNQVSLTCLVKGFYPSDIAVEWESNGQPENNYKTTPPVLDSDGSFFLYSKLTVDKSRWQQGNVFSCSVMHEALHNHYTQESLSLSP
# light: B1 light
# notes: copies: 2 + 2
# B6: GpH7-B3 variant G236H/GpL16-k0 (antibody, human IgG1)
# heavy: not shown
# light: B1 light
# notes: copies: 2 + 2
# B7: GpH7-B3 variant E269V/GpL16-k0 (antibody, human IgG1)
# heavy: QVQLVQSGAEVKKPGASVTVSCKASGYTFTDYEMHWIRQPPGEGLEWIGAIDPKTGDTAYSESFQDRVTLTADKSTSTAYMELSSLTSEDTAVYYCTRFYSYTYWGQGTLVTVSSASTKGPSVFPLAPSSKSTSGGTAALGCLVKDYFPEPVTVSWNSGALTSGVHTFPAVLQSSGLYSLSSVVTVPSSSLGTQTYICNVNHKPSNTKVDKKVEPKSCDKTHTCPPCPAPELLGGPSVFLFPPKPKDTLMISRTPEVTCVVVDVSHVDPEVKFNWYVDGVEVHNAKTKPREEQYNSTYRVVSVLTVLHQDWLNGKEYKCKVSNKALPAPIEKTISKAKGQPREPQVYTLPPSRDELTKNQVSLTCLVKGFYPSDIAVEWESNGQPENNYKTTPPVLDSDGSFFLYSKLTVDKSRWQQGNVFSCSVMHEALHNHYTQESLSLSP
# light: B1 light
# notes: copies: 2 + 2
# B8: GpH7-B3 variant G236M/GpL16-k0 (antibody, human IgG1)
# heavy: not shown
# light: B1 light
# notes: copies: 2 + 2
# B9: GpH7-B3 variant E269R/GpL16-k0 (antibody, human IgG1)
# heavy: not shown
# light: B1 light
# notes: copies: 2 + 2
# B10: GpH7-B3 variant G237N/GpL16-k0 (antibody, human IgG1)
# heavy: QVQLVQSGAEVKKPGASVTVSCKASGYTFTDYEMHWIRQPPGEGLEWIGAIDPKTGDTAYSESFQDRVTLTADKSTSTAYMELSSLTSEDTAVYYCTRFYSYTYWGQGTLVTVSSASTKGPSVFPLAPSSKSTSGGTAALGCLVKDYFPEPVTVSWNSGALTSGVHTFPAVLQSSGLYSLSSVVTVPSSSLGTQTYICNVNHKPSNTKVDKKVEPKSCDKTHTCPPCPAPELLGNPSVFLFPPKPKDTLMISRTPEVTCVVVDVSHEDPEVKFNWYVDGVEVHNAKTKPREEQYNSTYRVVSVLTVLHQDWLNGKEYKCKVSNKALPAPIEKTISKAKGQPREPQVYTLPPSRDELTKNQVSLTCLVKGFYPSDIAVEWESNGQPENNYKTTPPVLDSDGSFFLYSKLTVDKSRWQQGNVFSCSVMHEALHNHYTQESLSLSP
# light: B1 light
# notes: copies: 2 + 2
# B11: GpH7-B3 variant G237D/GpL16-k0 (antibody, human IgG1)
# heavy: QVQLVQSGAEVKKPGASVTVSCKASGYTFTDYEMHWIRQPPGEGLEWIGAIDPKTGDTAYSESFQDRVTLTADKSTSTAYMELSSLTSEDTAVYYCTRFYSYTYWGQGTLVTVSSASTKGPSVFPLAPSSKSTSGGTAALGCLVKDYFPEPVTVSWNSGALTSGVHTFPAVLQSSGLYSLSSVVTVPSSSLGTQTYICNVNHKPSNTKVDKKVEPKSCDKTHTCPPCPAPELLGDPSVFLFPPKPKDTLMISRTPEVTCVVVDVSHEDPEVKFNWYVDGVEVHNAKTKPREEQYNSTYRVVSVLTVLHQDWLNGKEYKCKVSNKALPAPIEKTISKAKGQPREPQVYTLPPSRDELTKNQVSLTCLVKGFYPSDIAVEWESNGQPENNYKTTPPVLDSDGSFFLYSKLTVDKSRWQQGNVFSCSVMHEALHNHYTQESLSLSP
# light: B1 light
# notes: copies: 2 + 2
# B12: GpH7-B3 variant G237R/GpL16-k0 (antibody, human IgG1)
# heavy: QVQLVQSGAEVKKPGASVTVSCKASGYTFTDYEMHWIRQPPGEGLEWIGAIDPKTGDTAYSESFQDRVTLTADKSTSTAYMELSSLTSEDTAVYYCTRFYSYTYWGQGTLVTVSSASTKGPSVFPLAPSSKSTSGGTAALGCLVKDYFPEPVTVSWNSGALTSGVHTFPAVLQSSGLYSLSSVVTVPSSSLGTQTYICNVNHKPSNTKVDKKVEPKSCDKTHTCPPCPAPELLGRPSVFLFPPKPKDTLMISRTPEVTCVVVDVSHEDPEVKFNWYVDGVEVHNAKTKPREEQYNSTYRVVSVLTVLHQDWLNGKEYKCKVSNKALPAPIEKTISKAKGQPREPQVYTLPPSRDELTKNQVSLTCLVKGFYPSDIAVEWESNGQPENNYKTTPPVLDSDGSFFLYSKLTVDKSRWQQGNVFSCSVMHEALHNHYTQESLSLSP
# light: B1 light
# notes: copies: 2 + 2
# B13: GpH7-B3 variant G237E/GpL16-k0 (antibody, human IgG1)
# heavy: not shown
# light: B1 light
# notes: copies: 2 + 2
# B14: GpH7-B3 variant G237M/GpL16-k0 (antibody, human IgG1)
# heavy: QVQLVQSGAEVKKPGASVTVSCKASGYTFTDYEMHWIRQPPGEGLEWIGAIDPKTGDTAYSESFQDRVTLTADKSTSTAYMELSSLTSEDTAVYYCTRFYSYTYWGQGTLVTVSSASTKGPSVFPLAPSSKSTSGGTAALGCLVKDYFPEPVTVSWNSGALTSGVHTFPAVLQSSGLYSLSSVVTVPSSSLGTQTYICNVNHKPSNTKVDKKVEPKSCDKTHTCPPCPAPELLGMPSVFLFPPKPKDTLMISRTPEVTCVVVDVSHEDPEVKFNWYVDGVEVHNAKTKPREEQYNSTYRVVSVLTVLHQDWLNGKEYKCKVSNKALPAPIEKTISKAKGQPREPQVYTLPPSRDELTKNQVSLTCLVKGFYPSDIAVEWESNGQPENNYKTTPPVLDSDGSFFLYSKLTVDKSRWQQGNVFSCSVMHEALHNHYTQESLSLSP
# light: B1 light
# notes: copies: 2 + 2
# B15: GpH7-B3 variant E269P/GpL16-k0 (antibody, human IgG1)
# heavy: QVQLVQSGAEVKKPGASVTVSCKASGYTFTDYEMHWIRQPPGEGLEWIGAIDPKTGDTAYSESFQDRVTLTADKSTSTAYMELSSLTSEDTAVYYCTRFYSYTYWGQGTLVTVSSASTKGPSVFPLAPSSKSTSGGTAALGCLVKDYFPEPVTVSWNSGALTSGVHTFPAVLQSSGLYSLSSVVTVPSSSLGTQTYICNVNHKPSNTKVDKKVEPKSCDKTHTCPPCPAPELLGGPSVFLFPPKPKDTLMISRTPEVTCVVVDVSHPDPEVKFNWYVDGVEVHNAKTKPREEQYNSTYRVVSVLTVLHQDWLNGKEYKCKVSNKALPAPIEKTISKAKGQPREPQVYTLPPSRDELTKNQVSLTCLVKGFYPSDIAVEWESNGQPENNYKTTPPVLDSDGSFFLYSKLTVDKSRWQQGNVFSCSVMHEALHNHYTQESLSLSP
# light: B1 light
# notes: copies: 2 + 2
# Molecular target: T1, human FcγRIIa(H)
# Assay: SPR (Biacore);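 further: antibody variants captured on sensor chip, Fcγ receptor flowed over at 25 °C, bound receptor normalized to amount of captured antibody, expressed relative to reference antibody set as 100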
row,relative binding activity,Binder
1,80 % of GpH7-B3/GpL16-k0,B1
2,43 % of GpH7-B3/GpL16-k0,B2
3,1 % of GpH7-B3/GpL16-k0,B3
4,39 % of GpH7-B3/GpL16-k0,B4
5,81 % of GpH7-B3/GpL16-k0,B5
6,91 % of GpH7-B3/GpL16-k0,B6
7,35 % of GpH7-B3/GpL16-k0,B7
8,42 % of GpH7-B3/GpL16-k0,B8
9,13 % of GpH7-B3/GpL16-k0,B9
10,0 % of GpH7-B3/GpL16-k0,B10
11,0 % of GpH7-B3/GpL16-k0,B11
12,-1 % of GpH7-B3/GpL16-k0,B12
13,1 % of GpH7-B3/GpL16-k0,B13
14,1 % of GpH7-B3/GpL16-k0,B14
15,33 % of GpH7-B3/GpL16-k0,B15

# Molecular target: T2, human FcγRIIb
# Assay: SPR (Biacore);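 further: antibody variants captured on sensor chip, Fcγ receptor flowed over at 25 °C, bound receptor normalized to amount of captured antibody, expressed relative to reference antibody set as 100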
row,relative binding activity,Binder
1,19 % of GpH7-B3/GpL16-k0,B1
2,13 % of GpH7-B3/GpL16-k0,B2
3,51 % of GpH7-B3/GpL16-k0,B3
4,19 % of GpH7-B3/GpL16-k0,B4
5,75 % of GpH7-B3/GpL16-k0,B5
6,6 % of GpH7-B3/GpL16-k0,B6
7,10 % of GpH7-B3/GpL16-k0,B7
8,14 % of GpH7-B3/GpL16-k0,B8
9,0 % of GpH7-B3/GpL16-k0,B9
10,65 % of GpH7-B3/GpL16-k0,B10
11,95 % of GpH7-B3/GpL16-k0,B11
12,-1 % of GpH7-B3/GpL16-k0,B12
13,18 % of GpH7-B3/GpL16-k0,B13
14,36 % of GpH7-B3/GpL16-k0,B14
15,26 % of GpH7-B3/GpL16-k0,B15

# Molecular target: T3, human FcγRIIa(R)
# Assay: SPR (Biacore);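 further: antibody variants captured on sensor chip, Fcγ receptor flowed over at 25 °C, bound receptor normalized to amount of captured antibody, expressed relative to reference antibody set as 100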
row,relative binding activity,Binder
1,38 % of GpH7-B3/GpL16-k0,B1
2,21 % of GpH7-B3/GpL16-k0,B2
3,58 % of GpH7-B3/GpL16-k0,B3
4,35 % of GpH7-B3/GpL16-k0,B4
5,54 % of GpH7-B3/GpL16-k0,B5
6,32 % of GpH7-B3/GpL16-k0,B6
7,16 % of GpH7-B3/GpL16-k0,B7
8,23 % of GpH7-B3/GpL16-k0,B8
9,2 % of GpH7-B3/GpL16-k0,B9
10,75 % of GpH7-B3/GpL16-k0,B10
11,74 % of GpH7-B3/GpL16-k0,B11
12,0 % of GpH7-B3/GpL16-k0,B12
13,23 % of GpH7-B3/GpL16-k0,B13
14,56 % of GpH7-B3/GpL16-k0,B14
15,34 % of GpH7-B3/GpL16-k0,B15

# Molecular target: T4, human FcγRIa (human, UniProt P12314 16-292, limits assumed)
# T4 construct: also called FcgRIa; FcγRI (CD64)
# T4 sequence (P12314 16-292 limits assumed): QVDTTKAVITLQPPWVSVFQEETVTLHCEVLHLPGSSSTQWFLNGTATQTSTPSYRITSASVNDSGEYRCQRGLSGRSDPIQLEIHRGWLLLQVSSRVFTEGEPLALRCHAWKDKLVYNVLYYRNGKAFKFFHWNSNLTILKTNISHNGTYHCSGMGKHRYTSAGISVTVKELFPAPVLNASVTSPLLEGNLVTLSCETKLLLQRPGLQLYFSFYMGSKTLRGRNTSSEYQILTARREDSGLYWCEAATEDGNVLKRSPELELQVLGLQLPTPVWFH
# Assay: SPR (Biacore);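 further: antibody variants captured on sensor chip, Fcγ receptor flowed over at 25 °C, bound receptor normalized to amount of captured antibody, expressed relative to reference antibody set as 100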
row,relative binding activity,Binder
1,45 % of GpH7-B3/GpL16-k0,B1
2,97 % of GpH7-B3/GpL16-k0,B2
3,7 % of GpH7-B3/GpL16-k0,B3
4,93 % of GpH7-B3/GpL16-k0,B4
5,42 % of GpH7-B3/GpL16-k0,B5
6,34 % of GpH7-B3/GpL16-k0,B6
7,92 % of GpH7-B3/GpL16-k0,B7
8,70 % of GpH7-B3/GpL16-k0,B8
9,72 % of GpH7-B3/GpL16-k0,B9
10,15 % of GpH7-B3/GpL16-k0,B10
11,26 % of GpH7-B3/GpL16-k0,B11
12,3 % of GpH7-B3/GpL16-k0,B12
13,18 % of GpH7-B3/GpL16-k0,B13
14,14 % of GpH7-B3/GpL16-k0,B14
15,93 % of GpH7-B3/GpL16-k0,B15

# Molecular target: T5, human FcγRIIIa(F) (human, UniProt P08637 17-208, limits assumed)
# T5 construct: also called FcgRIIIaF; allotype F158
# T5 sequence (P08637 other isoform, or with tags, fused parts or gaps limits assumed): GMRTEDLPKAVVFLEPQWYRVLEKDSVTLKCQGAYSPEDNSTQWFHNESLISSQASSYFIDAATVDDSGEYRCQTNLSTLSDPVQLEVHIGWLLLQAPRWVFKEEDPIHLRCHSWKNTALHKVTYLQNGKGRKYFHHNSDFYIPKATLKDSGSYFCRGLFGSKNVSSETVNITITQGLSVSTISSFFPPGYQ
# Assay: SPR (Biacore)
row,relative binding activity,Binder
1,8 % of GpH7-B3/GpL16-k0,B1
2,14 % of GpH7-B3/GpL16-k0,B2
3,0 % of GpH7-B3/GpL16-k0,B3
4,26 % of GpH7-B3/GpL16-k0,B4
5,8 % of GpH7-B3/GpL16-k0,B5
6,7 % of GpH7-B3/GpL16-k0,B6
7,12 % of GpH7-B3/GpL16-k0,B7
8,9 % of GpH7-B3/GpL16-k0,B8
9,7 % of GpH7-B3/GpL16-k0,B9
10,0 % of GpH7-B3/GpL16-k0,B10
11,0 % of GpH7-B3/GpL16-k0,B11
12,0 % of GpH7-B3/GpL16-k0,B12
13,0 % of GpH7-B3/GpL16-k0,B13
14,0 % of GpH7-B3/GpL16-k0,B14
15,14 % of GpH7-B3/GpL16-k0,B15
